# According to the supplement of paper PMC12042874:
# ± gives the uncertainty stated by the source.
# Experiment: amyloid nucleation score (Sup35N fusion, yeast selection) (log enrichment); library NNK1; higher = more nucleation; inactive = no reads after selection
# Outline: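 Psi-negative yeast expressed Sup35N fused to peptides of 20 random codons. They were induced 24 hours with 100 μM copper sulfate, grown 7 days at 30°C without adenine and uracil, and their plasmid inserts from input and output were Illumina-sequenced. The nucleation score is the DiMSum log enrichment of output over input reads, centred on the mode score of non-aggregating sequences. Sequences with under 100 input reads were excluded.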
row,Substance,amyloid nucleation score
1,FFAHNRTMSRRNQAFGF,0.86 ± 1.1
2,FKEER,0.133 ± 1.4
3,GYFDMFTKIVVL,0.856 ± 0.45
4,VGSKVYMTSAAMYFVNRGFV,6.11 ± 0.081
5,TASNHVVLSHPDSGILGIRA,-0.278 ± 0.42
6,GYRCSWNDPMVNTVFFV,0.98 ± 0.56
7,VFYQLCDWYNFGF,5.68 ± 0.1
8,FVYHWRSVKGNLVWRCGSMD,0.95 ± 0.63
9,YSVLNINLQFRSSLLGAFYP,3.75 ± 0.063
10,RIVYLCSSGCVRKCWLLCSG,2.29 ± 0.24
11,FHICGFRYSHLGREPMKFGI,2.23 ± 0.19
12,DDSHVSCDYTLYGWSFGYMC,2.37 ± 0.1
13,HGAMLSSM,-2.06 ± 2.4
14,LFTIMTLDCNFRLSGLSLAI,0.236 ± 0.21
15,AIVTSGNRE,-0.015 ± 0.51
16,IDKGLHALLSTLLSINVSFC,2.95 ± 0.094
17,ISQVIGSRILPRPTEQVA,-1.96 ± 1.3
18,FERCLNPGYCINFAGCESVV,0.581 ± 0.51
19,TYCNQWIGCMGYRKKHEPR,-0.077 ± 0.41
20,VVASSCSFNRRLESSAGYL,0.744 ± 0.37
21,GACECDGYVTWCLRGIFGAK,-1.41 ± 0.94
22,LLNRSALCWMCCTKDSWLLT,7.073 ± 0.061
23,LFKLSLGCTYCSFA,-0.292 ± 0.42
24,RWSFSSTY,3.69 ± 0.085
25,GHSLHLWVTTKS,0.561 ± 0.66
26,DANNIRLDDSFELRWCKNVC,-1.36 ± 0.91

row,Substance,amyloid nucleation score
1,GIRVFPMCNFG,inactive
2,YLICWVIPGSNVGLMVGMTA,0.093 ± 1.4
3,GTHEVLCNDHPCVYRHILRC,-0.753 ± 0.3
4,RTEGVET,-0.251 ± 0.58
5,EECGLGCAVKA,0.188 ± 0.19
6,FFCLSIHVYSG,0.46 ± 0.97
7,SNIFNMGY,0.187 ± 0.35
8,YLGTFN,inactive
9,RYIRLRMFLCLFYLMCLPRR,-1.25 ± 0.75
10,FRNIDTLLTVHCVSACR,-2.4 ± 2.7
11,MLSMFGWISSIFVYYYLNKR,0.571 ± 0.17
12,IVSLNGPAKSSAFGKFSGPL,-0.602 ± 0.72
13,RDSLSSVSA,-0.382 ± 0.62
14,LIEDHVLYHVRAKKYRSHYI,-0.381 ± 0.79
15,GYWPNKRWSRMKPIYPHSNV,1.34 ± 0.18
16,MGLSNSDADGRTLRNEHVKS,-1.35 ± 2.1
17,VKSGS,0.21 ± 0.24
18,EIYGKCLNPIGL,0.53 ± 0.52
19,HCYRITYKRSNRDVL,1.76 ± 0.36
20,CESCAACMRHYRWLGFQSYI,-1.5 ± 2.4
21,FDAMSANLESIYFSFNENMY,-0.572 ± 0.56
22,FSKCSFT,-0.169 ± 0.69
23,KERIFPLTTEAMKLERKA,-0.341 ± 0.57
24,KSDSVLAGY,5.039 ± 0.05
25,SISWVWAAPIRAI,-1.59 ± 2.4
26,ISMNF,0.67 ± 1.1

row,Substance,amyloid nucleation score
1,KVNTLCEHSSIHRPVVGNGG,0.082 ± 0.77
2,FFLAV,-0.158 ± 0.64
3,KSMECSFAWLWDSREFIFCH,-1.67 ± 1.4
4,VSRFFGNRRTNSNENTAGVA,-1.15 ± 0.43
5,AYMWLGAINICLWYWSLGR,3.02 ± 0.21
6,EPSLERRRRPSEMVGAKGWI,-0.374 ± 1.1
7,TASHFGNKWV,0.352 ± 0.32
8,LSHRGVLVAMDRTMYPM,-0.621 ± 0.42
9,NFLFAYVLALRLFMYSVNMW,4.5 ± 0.054
10,PSTVCMFPRWLAVVRLVLQT,0.79 ± 0.35
11,LVVQLYS,-0.336 ± 0.62
12,YWWDIRWGEAGSRERRVELG,0.078 ± 0.53
13,FIRTRLIIYLSEDGYPVA,1.31 ± 0.21
14,YTDAIYHPIPRTGMYSWC,-0.194 ± 0.34
15,GDFSGSDVHLSFLF,0.541 ± 0.4
16,YVLMPWSFLLHGMRNLTAMS,inactive
17,SVVIFHHTICLERDAVRQKF,5.02 ± 0.083
18,MPCHAFAKMFVQSEFSGSVC,0.498 ± 0.97
19,RLWIVPLGLWCLRHRVCCRP,-0.246 ± 0.65
20,VVQGCIYYCHNVWYLDVFSF,4.62 ± 0.089
21,VKTHSVFSMMVV,0.558 ± 0.51
22,RFCLAVGLRMGYFLGCSDFR,-0.45 ± 1.4
23,RYHRWFRVRSSENRWGIC,-0.51 ± 0.93
24,TGWNGNLGSVVAE,-0.375 ± 0.5
25,NVSISVR,-0.054 ± 0.38
26,NDWVY,1.12 ± 0.53

row,Substance,amyloid nucleation score
1,MQVNIVGVSILVAWPR,6.48 ± 0.071
2,NNLVFHGSKHNIKVRRMEMG,-1.14 ± 2.7
3,ILTVLLISMWVMNHLIFLGL,-0.563 ± 1.4
4,PLSRVLGYVFIISRRTNRIL,-0.206 ± 0.28
5,SLVAGVVFVFMYRVPKIGLV,-0.807 ± 1.2
6,LDQRKGPFSNSALRGHSWCN,-0.506 ± 0.44
7,SEYETG,0.101 ± 0.34
8,PVTSTIHRHPFFHVTTGDRM,-1.32 ± 0.94
9,TCCNDDKRYIWCIYSRAKMN,-1.55 ± 0.42
10,RRPASFLFFTYPILLQVFTF,-1.22 ± 2.1
11,GWCYSDVVMLPF,-0.141 ± 0.34
12,FSMGQQMFVLVLSCFLVLWC,0.832 ± 0.65
13,FYQYVKCVIVPSVDALGVFS,0.931 ± 0.2
14,FTGNLSGDCIYYFLCVVLSM,0.47 ± 0.65
15,RWSWTVIMSMEADGCFRLHL,1.68 ± 0.28
16,GKEDRIG,-0.093 ± 0.81
17,AGFVYFPMYNKLMELFTRGI,1.29 ± 0.66
18,SRVVSYSL,-0.5 ± 0.41
19,HSVLVVSVVHCGFKQKRNK,3.98 ± 0.15
20,YGLMVVVKVS,6.666 ± 0.043
21,EDSYFYFRIEGISTVKCMAR,-0.427 ± 1.9
22,VVAVE,-0.27 ± 0.38
23,AQQLGMMGVGFMQRWNCRF,-1.74 ± 2.4
24,SNGHNAILVA,inactive
25,RIFNIYNGVQRRNFYYFYSC,7.532 ± 0.05
26,VISIGIGMDTTTRVGQMYMK,-0.115 ± 1.4

row,Substance,amyloid nucleation score
1,GTSVN,1.08 ± 0.17
2,IEVKSWYATPNFGSQLSKRD,0.274 ± 0.45
3,FYISNMM,-1.35 ± 0.74
4,CDYVKRLDNLLGYPLWWGRW,0.22 ± 0.34
5,MLRMLAVQCFSSCIARLD,2.05 ± 0.3
6,PMICFGWALIRYVTFQDLPV,0.276 ± 0.45
7,IYNLNVISSVCESTRCRQTA,7.08 ± 0.078
8,ALKQPVYDGRGPRLGIGPRR,-0.124 ± 1
9,YVDDFPRQSAGFIDT,2 ± 0.57
10,GRRYELPGPSPYCVRDSGRR,-0.301 ± 0.65
11,LQRLY,-0.251 ± 0.35
12,FFHAIIWRLIYRQFPDFVG,0.984 ± 0.43
13,PANSSMSSNY,0.091 ± 1.5
14,EMTCAWDGNELLFKQRRTIR,inactive
15,TRSKMALGVQYHGLMQLYCR,0.121 ± 0.31
16,MDCCYYFFLIF,4.15 ± 0.052
17,NVISRSLVMYMYKEERPASA,0.031 ± 0.27
18,GSFHTQRTWAFVVVVEVHGK,0.232 ± 0.41
19,AYKDGVTTLDLGCTGCFCYA,4.7 ± 0.072
20,FRLRVSGVSCMR,-0.912 ± 2.4
21,MTPKLVQSRT,0.106 ± 0.91
22,CGTIKLSPFWWSVEDHACWM,0.828 ± 0.57
23,DSGCRTRVTLSRGFYRTFSS,1.2 ± 0.6
24,YTTHLCLGAVSLYYVSGYTR,2.44 ± 0.13
25,CPLTGDRTAVRHMRKSAFAE,-0.525 ± 0.4
